Source: patent publication US20040220079

Assays:
[1] = biological target: oxidized bovine insulin B chain, P01317
[2] = biological target: Native proteins
[3] = biological target: T1, synthetic peptide derived from the APP beta-secretase site (SEVKM/DAEFR)
T1 chain: SEVKMDAEFR

[4] = biological target: T2, peptide derived from the processing site of presenilin 1 (SVNM/AEGD)
T2 chain: SVNMAEGD

[5] = biological target: T3, synthetic peptide derived from the APP beta-secretase site containing the Swedish mutation (SEVNL/DAEFR)
T3 chain: SEVNLDAEFR

[6] = biological target: T4, synthetic peptide Nch (VGSGVLLSRK)
T4 chain: VGSGVLLSRK

[7] = biological target: T5, synthetic peptide PS1-gamma (LVNMAEGD)
T5 chain: LVNMAEGD

Chain of oxidized bovine insulin B chain, P01317 (P01317 25-54): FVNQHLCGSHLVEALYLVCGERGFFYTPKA

B1: M2pd (modified M2 containing amino acids from Ala-8p to Ala326) (protein)
chain: TQHGIRLPLRSGLGGAPLGLRLPRETDEEPEEPGRRGSFVEMVDNLRGKSGQGYYVEMTVGSPPQTLNILVDTGSSNFAVGAAPHPFLHRYYQRQLSSTYRDLRKGVYVPYTQGKWEGELGTDLVSIPHGPNVTVRANIAAITESDKFFINGSNWEGILGLAYAEIARPDDSLEPFFDSLVKQTHVPNLFSLQLCGAGFPLNQSEVLASVGGSMIIGGIDHSLYTGSLWYTPIRREWYYEVIIVRVEINGQDLKMDCKEYNYDKSIVDSGTTNLRLPKKVFEAAVKSIKAASSTEKFPDGFWLGEQLVCWQAGTTPWNIFPVISLYLMGEVTNQSFRITILPQQYLRPVEDVATSQDDCYKFAISQSSTGTVMGAVIMEGFYVVFDRARKRIGFAVSACHVHDEFRTAAVEGPFVTLDMEDCGYNIPQTDESTLMTIAYVMAAICALFMLPLCLMVCQWRCLRCLRQQHDDFADDISLLK
hydrolytic sites [1]: 2 sites
cleavage of proteins [2]: Native proteins were not cleaved by M2pd
kcat/Km [3]: kcat/Km, 39.9 s^-1M^-1
Km [4]: Km, 15.2 mM
kcat [4]: kcat, 0.67 s^-1
kcat/Km [4]: kcat/Km, 43.8 s^-1M^-1
Km [5]: Km, 1 mM
fold increase of kcat/Km over native APP [5]: 60-fold increase of kcat/Km over that for native APP
kcat [5]: kcat, 2.45 s^-1
kcat/Km [5]: kcat/Km, 2450 s^-1M^-
hydrolytic sites [6]: 3 sites
hydrolytic sites [7]: A single cleavage site was observed in synthetic peptide PS1-gamma
